{"source": "patent US20190309059A1", "about": "(SHANGHAI PHARMAEXPLORER, published 2019)", "binders": {"B1": {"name": "c29D9H8 (mouse-human chimeric IL-13 antibody) (antibody, V domains shown)", "VH": "QVQLQQSGAELVRPGASVTLSCKASGYTFTDYEMHWVKQTPVHGLEWIGGIDPETGGTASNQKFKGKAILTADKSSSTAYMELRSLTSEDSAVYYCTSGDYFGGGPFAYWGQGTLVTVSA", "VL": "DIKMTQSPSSMYASLGERVTITCKASQDINSYLSWFQQKPGKSPKTLIYRANRLVDGVPSRFSGSGSGQDYSLTISSLDYEDMGIYYCLQYDEFPYTFGGGTKLEIK"}}, "key": {"[1]": {"target": "his-labeled human IL-13 (immunogen A) (human) (UniProt P35225)", "assay": "FACS blocking, biotin-IL-13 on IL-13Ra2 HEK293 cells; antibody at 166.67 nM"}, "[2]": {"target": "his-labeled human IL-13 (immunogen A) (human) (UniProt P35225)", "assay": "FACS blocking, biotin-IL-13 on IL-13Ra1/IL-4Ra HEK293 cells; antibody at 0.01 nM"}, "[3]": {"target": "his-labeled human IL-13 (immunogen A) (human) (UniProt P35225)", "assay": "FACS blocking, biotin-IL-13 on IL-13Ra1/IL-4Ra HEK293 cells; antibody at 166.67 nM"}, "[4]": {"target": "his-labeled human IL-13 (immunogen A) (human) (UniProt P35225)", "assay": "FACS blocking, biotin-IL-13 on IL-13Ra1/IL-4Ra HEK293 cells; antibody at 33.33 nM"}, "[5]": {"target": "cynomolgus IL-13 (purchased from sino biological) (cynomolgus) (UniProt Q0PW92)", "sequence (Q0PW92 entry or part of it)": "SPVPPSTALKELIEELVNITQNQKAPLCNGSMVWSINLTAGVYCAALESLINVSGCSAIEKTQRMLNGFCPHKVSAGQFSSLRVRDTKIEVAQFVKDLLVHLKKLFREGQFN", "assay": "ELISA, cynomolgus IL-13; antibody at 0.107 nM"}, "[6]": {"target": "cynomolgus IL-13 (purchased from sino biological) (cynomolgus) (UniProt Q0PW92)", "assay": "ELISA, cynomolgus IL-13; antibody at 2.67 nM"}, "[7]": {"target": "his-labeled human IL-13 (immunogen A) (human) (UniProt P35225)", "assay": "FACS blocking, biotin-IL-13 on IL-13Ra2 HEK293 cells; antibody at 33.33 nM"}, "[8]": {"target": "his-labeled human IL-13 (immunogen A) (human) (UniProt P35225)", "assay": "FACS blocking, biotin-IL-13 on IL-13Ra1/IL-4Ra HEK293 cells; antibody at 0.05 nM"}, "[9]": {"target": "cynomolgus IL-13 (purchased from sino biological) (cynomolgus) (UniProt Q0PW92)", "assay": "ELISA, cynomolgus IL-13; antibody at 0.004 nM"}, "[10]": {"target": "his-labeled human IL-13 (immunogen A) (human) (UniProt P35225)", "assay": "FACS blocking, biotin-IL-13 on IL-13Ra1/IL-4Ra HEK293 cells; antibody at 0.27 nM"}, "[11]": {"target": "his-labeled human IL-13 (immunogen A) (human) (UniProt P35225)", "assay": "FACS blocking, biotin-IL-13 on IL-13Ra2 HEK293 cells; antibody at 0.01 nM"}, "[12]": {"target": "his-labeled human IL-13 (immunogen A) (human) (UniProt P35225)", "assay": "FACS blocking, biotin-IL-13 on IL-13Ra2 HEK293 cells; antibody at 0.05 nM"}, "[13]": {"target": "his-labeled human IL-13 (immunogen A) (human) (UniProt P35225)", "assay": "FACS blocking, biotin-IL-13 on IL-13Ra1/IL-4Ra HEK293 cells; antibody at 1.33 nM"}, "[14]": {"target": "his-labeled human IL-13 (immunogen A) (human) (UniProt P35225)", "assay": "FACS blocking, biotin-IL-13 on IL-13Ra1/IL-4Ra HEK293 cells; antibody at 6.67 nM"}, "[15]": {"target": "cynomolgus IL-13 (purchased from sino biological) (cynomolgus) (UniProt Q0PW92)", "assay": "ELISA, cynomolgus IL-13; antibody at 0.53 nM"}, "[16]": {"target": "cynomolgus IL-13 (purchased from sino biological) (cynomolgus) (UniProt Q0PW92)", "assay": "ELISA, cynomolgus IL-13; antibody at 0.021 nM"}, "[17]": {"target": "his-labeled human IL-13 (immunogen A) (human) (UniProt P35225)", "assay": "FACS blocking, biotin-IL-13 on IL-13Ra2 HEK293 cells; antibody at 0.27 nM"}, "[18]": {"target": "his-labeled human IL-13 (immunogen A) (human) (UniProt P35225)", "assay": "FACS blocking, biotin-IL-13 on IL-13Ra2 HEK293 cells; antibody at 6.67 nM"}, "[19]": {"target": "his-labeled human IL-13 (immunogen A) (human) (UniProt P35225)", "assay": "FACS blocking, biotin-IL-13 on IL-13Ra1/IL-4Ra HEK293 cells; antibody at 0.002 nM"}, "[20]": {"target": "his-labeled human IL-13 (immunogen A) (human) (UniProt P35225)", "assay": "FACS blocking, biotin-IL-13 on IL-13Ra2 HEK293 cells; antibody at 0.002 nM"}, "[21]": {"target": "his-labeled human IL-13 (immunogen A) (human) (UniProt P35225)", "assay": "FACS blocking, biotin-IL-13 on IL-13Ra2 HEK293 cells; antibody at 1.33 nM"}, "[22]": {"target": "his-labeled human IL-13 (immunogen A) (human) (UniProt P35225)", "assay": "cell-based or functional assay"}, "[23]": {"target": "his-labeled human IL-13R130Q variant (human) (UniProt P35225)", "sequence (P35225 other isoform, or with tags, fused parts or gaps mutant)": "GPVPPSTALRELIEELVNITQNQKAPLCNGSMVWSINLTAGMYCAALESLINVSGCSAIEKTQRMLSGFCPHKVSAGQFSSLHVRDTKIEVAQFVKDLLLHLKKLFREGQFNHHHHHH", "assay": "ELISA: IL-13R130Q variant on the plate, antibody titrated, HRP secondary antibody, OD450"}}, "data": [{"binder": "B1", "values": [{"measurement": "mean fluorescence intensity", "setting": "[1]", "result": 20.4}, {"measurement": "mean fluorescence intensity", "setting": "[2]", "result": 101}, {"measurement": "mean fluorescence intensity", "setting": "[3]", "result": 20}, {"measurement": "mean fluorescence intensity", "setting": "[4]", "result": 20.2}, {"measurement": "OD450 nm", "setting": "[5]", "result": 1.23}, {"measurement": "OD450 nm", "setting": "[6]", "result": 3.2}, {"measurement": "mean fluorescence intensity", "setting": "[7]", "result": 22.8}, {"measurement": "mean fluorescence intensity", "setting": "[8]", "result": 90.3}, {"measurement": "OD450 nm", "setting": "[9]", "result": 0.17}, {"measurement": "mean fluorescence intensity", "setting": "[10]", "result": 72.6}, {"measurement": "mean fluorescence intensity", "setting": "[11]", "result": 95.9}, {"measurement": "mean fluorescence intensity", "setting": "[12]", "result": 81.6}, {"measurement": "mean fluorescence intensity", "setting": "[13]", "result": 45.7}, {"measurement": "mean fluorescence intensity", "setting": "[14]", "result": 28.3}, {"measurement": "OD450 nm", "setting": "[15]", "result": 2.68}, {"measurement": "OD450 nm", "setting": "[16]", "result": 0.408}, {"measurement": "mean fluorescence intensity", "setting": "[17]", "result": 56.3}, {"measurement": "mean fluorescence intensity", "setting": "[18]", "result": 25}, {"measurement": "mean fluorescence intensity", "setting": "[19]", "result": 105}, {"measurement": "mean fluorescence intensity", "setting": "[20]", "result": 101}, {"measurement": "mean fluorescence intensity", "setting": "[21]", "result": 34.6}, {"measurement": "Periostin (pg/mL), MRCS cells + IL-13 5 ng/mL; antibody at 0.0002 nM", "setting": "[22]", "result": 6190, "unit": "pg/mL"}, {"measurement": "Periostin (pg/mL), MRCS cells + IL-13 5 ng/mL; antibody at 0.001 nM", "setting": "[22]", "result": 4630, "unit": "pg/mL"}, {"measurement": "Periostin (pg/mL), MRCS cells + IL-13 5 ng/mL; antibody at 0.004 nM", "setting": "[22]", "result": 3480, "unit": "pg/mL"}, {"measurement": "Periostin (pg/mL), MRCS cells + IL-13 5 ng/mL; antibody at 0.021 nM", "setting": "[22]", "result": 3570, "unit": "pg/mL"}, {"measurement": "Periostin (pg/mL), MRCS cells + IL-13 5 ng/mL; antibody at 0.11 nM", "setting": "[22]", "result": 3220, "unit": "pg/mL"}, {"measurement": "Periostin (pg/mL), MRCS cells + IL-13 5 ng/mL; antibody at 0.53 nM", "setting": "[22]", "result": 1450, "unit": "pg/mL"}, {"measurement": "Periostin (pg/mL), MRCS cells + IL-13 5 ng/mL; antibody at 2.67 nM", "setting": "[22]", "result": 927, "unit": "pg/mL"}, {"measurement": "Periostin (pg/mL), MRCS cells + IL-13 5 ng/mL; antibody at 13.3 nM", "setting": "[22]", "result": 1150, "unit": "pg/mL"}, {"measurement": "TARC (pg/mL), A549 cells + IL-13 + TNFα; antibody at 0.001 nM", "setting": "[22]", "result": 3160, "unit": "pg/mL"}, {"measurement": "TARC (pg/mL), A549 cells + IL-13 + TNFα; antibody at 0.004 nM", "setting": "[22]", "result": 2950, "unit": "pg/mL"}, {"measurement": "TARC (pg/mL), A549 cells + IL-13 + TNFα; antibody at 0.021 nM", "setting": "[22]", "result": 2730, "unit": "pg/mL"}, {"measurement": "TARC (pg/mL), A549 cells + IL-13 + TNFα; antibody at 0.11 nM", "setting": "[22]", "result": 1850, "unit": "pg/mL"}, {"measurement": "TARC (pg/mL), A549 cells + IL-13 + TNFα; antibody at 0.53 nM", "setting": "[22]", "result": 655, "unit": "pg/mL"}, {"measurement": "TARC (pg/mL), A549 cells + IL-13 + TNFα; antibody at 2.67 nM", "setting": "[22]", "result": 159, "unit": "pg/mL"}, {"measurement": "TARC (pg/mL), A549 cells + IL-13 + TNFα; antibody at 13.3 nM", "setting": "[22]", "result": 50, "unit": "pg/mL"}, {"measurement": "TARC (pg/mL), A549 cells + IL-13 + TNFα; antibody at 66.7 nM", "setting": "[22]", "result": 36, "unit": "pg/mL"}, {"measurement": "VCAM-1 fluorescence intensity, HUVEC + IL-13 0.5 ng/mL + TNFα; antibody at 0.0002 nM", "setting": "[22]", "result": 364}, {"measurement": "VCAM-1 fluorescence intensity, HUVEC + IL-13 0.5 ng/mL + TNFα; antibody at 0.001 nM", "setting": "[22]", "result": 373}, {"measurement": "VCAM-1 fluorescence intensity, HUVEC + IL-13 0.5 ng/mL + TNFα; antibody at 0.004 nM", "setting": "[22]", "result": 393}, {"measurement": "VCAM-1 fluorescence intensity, HUVEC + IL-13 0.5 ng/mL + TNFα; antibody at 0.021 nM", "setting": "[22]", "result": 409}, {"measurement": "VCAM-1 fluorescence intensity, HUVEC + IL-13 0.5 ng/mL + TNFα; antibody at 0.11 nM", "setting": "[22]", "result": 251}, {"measurement": "VCAM-1 fluorescence intensity, HUVEC + IL-13 0.5 ng/mL + TNFα; antibody at 0.53 nM", "setting": "[22]", "result": 265}, {"measurement": "VCAM-1 fluorescence intensity, HUVEC + IL-13 0.5 ng/mL + TNFα; antibody at 2.67 nM", "setting": "[22]", "result": 246}, {"measurement": "VCAM-1 fluorescence intensity, HUVEC + IL-13 0.5 ng/mL + TNFα; antibody at 13.3 nM", "setting": "[22]", "result": 186}, {"measurement": "EC50 (read off the curve)", "setting": "[23]", "result": 200, "unit": "pM"}]}]}
